Source: the supplement of paper PMC10065799, “High-throughput profiling of sequence recognition by tyrosine kinases and SH2 domains using bacterial peptide display” (eLife, 2023)

Legend:
[1] = target: EPHB1 (UniProt P54762); test: phosphorylation enrichment, bacterial display (enrichment ratio); higher = better substrate or ligand; peptides without Tyr show the background
[2] = target: MERTK (UniProt Q12866); test: as above
[3] = target: EPHB2 (UniProt P29323); test: as above
[4] = target: Jak2 (UniProt O60674); test: as above
[5] = target: FGFR1 (UniProt P11362); test: as above
[6] = target: Fes (UniProt P07332); test: as above
[7] = tested on: c-Abl (mouse); test: as above
[8] = target: Fyn (UniProt P06241); test: as above
[9] = tested on: AncSZ; test: as above
[10] = tested on: Fer (mouse); test: as above
[11] = tested on: c-Src; test: as above
[12] = target: Hck (UniProt P08631); test: as above
[13] = target: FGFR3 (UniProt P22607); test: as above
[14] = target: c-Src SH2; test: SH2 binding enrichment of the phosphorylated peptide, bacterial display (enrichment ratio); higher = better substrate or ligand; peptides without Tyr show the background
[15] = target: SHP2-C SH2; test: as above
[16] = target: Grb2 SH2 (UniProt P62993); test: as above
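Throughout, for SH2 binding enrichment of the phosphorylated peptide, bacterial display: peptide library displayed on the E. coli surface as eCPX fusions, selected cells deep-sequenced, score is each peptide's frequency after selection divided by its frequency in the input.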
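Throughout, for phosphorylation enrichment, bacterial display: 11-residue human phosphosite peptides and single-mutation variants displayed on the E. coli surface, counted by deep sequencing, each peptide's frequency after selection divided by its frequency in the unselected input library; frequency after pTyr selection over input frequency; kinase dosed for 20-30% of maximal phosphorylation in three min.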

EPHB2, sequence (P29323 whole entry, looked up): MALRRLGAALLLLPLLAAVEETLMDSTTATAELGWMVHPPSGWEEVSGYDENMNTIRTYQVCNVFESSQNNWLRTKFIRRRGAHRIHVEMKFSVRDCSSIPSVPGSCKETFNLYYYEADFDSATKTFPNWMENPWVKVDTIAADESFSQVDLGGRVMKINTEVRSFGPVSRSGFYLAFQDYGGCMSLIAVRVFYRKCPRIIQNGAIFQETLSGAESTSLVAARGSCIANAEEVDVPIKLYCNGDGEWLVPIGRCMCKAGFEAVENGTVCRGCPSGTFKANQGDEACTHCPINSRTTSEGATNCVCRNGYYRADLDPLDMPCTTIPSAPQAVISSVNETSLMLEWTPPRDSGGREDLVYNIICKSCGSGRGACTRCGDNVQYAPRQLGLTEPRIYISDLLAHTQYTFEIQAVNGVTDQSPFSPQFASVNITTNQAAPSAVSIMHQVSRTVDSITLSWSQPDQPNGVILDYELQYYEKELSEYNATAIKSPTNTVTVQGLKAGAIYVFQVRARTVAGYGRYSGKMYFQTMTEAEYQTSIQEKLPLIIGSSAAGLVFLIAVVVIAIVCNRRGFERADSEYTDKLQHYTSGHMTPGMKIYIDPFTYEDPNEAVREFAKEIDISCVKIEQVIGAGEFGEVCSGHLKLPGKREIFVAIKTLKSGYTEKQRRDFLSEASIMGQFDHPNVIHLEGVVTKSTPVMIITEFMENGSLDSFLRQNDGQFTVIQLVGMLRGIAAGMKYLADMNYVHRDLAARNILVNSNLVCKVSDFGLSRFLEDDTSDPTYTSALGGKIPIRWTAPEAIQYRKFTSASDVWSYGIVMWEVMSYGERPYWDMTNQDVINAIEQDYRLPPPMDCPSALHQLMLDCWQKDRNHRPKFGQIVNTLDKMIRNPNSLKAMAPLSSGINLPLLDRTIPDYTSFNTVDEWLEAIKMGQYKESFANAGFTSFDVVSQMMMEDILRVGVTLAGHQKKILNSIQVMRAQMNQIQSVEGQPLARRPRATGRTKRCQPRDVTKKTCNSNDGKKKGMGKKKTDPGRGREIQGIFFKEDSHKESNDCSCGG
Grb2 SH2, sequence (P62993 whole entry, looked up, the tested form may be a part): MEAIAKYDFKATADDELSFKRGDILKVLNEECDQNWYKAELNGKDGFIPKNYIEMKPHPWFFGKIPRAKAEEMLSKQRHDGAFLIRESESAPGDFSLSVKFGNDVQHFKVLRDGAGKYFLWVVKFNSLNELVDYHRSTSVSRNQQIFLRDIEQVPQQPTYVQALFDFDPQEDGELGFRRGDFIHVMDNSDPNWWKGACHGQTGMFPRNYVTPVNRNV
Hck, sequence (P08631 whole entry, looked up): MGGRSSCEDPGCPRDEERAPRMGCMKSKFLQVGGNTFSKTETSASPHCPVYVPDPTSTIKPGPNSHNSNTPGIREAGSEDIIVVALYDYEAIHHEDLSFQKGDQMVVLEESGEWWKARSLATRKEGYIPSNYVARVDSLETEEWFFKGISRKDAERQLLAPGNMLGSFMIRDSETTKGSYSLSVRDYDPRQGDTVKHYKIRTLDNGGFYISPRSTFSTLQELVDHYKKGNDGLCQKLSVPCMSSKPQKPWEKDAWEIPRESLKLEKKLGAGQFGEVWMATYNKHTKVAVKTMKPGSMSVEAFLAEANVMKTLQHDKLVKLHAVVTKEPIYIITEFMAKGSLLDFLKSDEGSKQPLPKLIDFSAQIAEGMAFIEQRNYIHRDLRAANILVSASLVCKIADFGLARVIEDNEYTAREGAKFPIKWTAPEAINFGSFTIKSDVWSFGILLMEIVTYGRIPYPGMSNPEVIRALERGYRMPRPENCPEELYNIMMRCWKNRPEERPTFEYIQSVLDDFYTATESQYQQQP
Fes, sequence (P07332 whole entry, looked up): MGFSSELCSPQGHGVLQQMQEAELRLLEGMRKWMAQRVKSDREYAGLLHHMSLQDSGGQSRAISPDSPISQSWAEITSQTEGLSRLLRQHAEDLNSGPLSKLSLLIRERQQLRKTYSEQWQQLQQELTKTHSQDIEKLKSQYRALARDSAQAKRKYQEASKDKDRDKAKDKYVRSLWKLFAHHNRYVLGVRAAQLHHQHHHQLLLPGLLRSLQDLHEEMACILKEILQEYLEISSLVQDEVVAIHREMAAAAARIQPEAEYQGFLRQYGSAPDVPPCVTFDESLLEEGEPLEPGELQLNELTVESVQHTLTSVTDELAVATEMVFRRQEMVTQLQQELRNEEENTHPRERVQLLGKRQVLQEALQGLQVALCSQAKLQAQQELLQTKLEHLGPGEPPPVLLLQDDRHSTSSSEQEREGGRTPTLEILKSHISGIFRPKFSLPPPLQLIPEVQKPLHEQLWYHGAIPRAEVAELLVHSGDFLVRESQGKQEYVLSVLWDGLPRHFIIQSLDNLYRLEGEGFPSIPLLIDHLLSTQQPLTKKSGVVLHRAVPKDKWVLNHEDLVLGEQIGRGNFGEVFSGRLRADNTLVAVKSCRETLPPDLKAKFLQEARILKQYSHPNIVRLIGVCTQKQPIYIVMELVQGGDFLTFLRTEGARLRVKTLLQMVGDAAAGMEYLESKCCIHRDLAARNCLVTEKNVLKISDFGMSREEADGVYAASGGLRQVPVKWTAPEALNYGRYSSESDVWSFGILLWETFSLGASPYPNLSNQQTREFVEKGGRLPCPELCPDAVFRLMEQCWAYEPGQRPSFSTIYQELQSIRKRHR
FGFR1, sequence (P11362 whole entry, looked up): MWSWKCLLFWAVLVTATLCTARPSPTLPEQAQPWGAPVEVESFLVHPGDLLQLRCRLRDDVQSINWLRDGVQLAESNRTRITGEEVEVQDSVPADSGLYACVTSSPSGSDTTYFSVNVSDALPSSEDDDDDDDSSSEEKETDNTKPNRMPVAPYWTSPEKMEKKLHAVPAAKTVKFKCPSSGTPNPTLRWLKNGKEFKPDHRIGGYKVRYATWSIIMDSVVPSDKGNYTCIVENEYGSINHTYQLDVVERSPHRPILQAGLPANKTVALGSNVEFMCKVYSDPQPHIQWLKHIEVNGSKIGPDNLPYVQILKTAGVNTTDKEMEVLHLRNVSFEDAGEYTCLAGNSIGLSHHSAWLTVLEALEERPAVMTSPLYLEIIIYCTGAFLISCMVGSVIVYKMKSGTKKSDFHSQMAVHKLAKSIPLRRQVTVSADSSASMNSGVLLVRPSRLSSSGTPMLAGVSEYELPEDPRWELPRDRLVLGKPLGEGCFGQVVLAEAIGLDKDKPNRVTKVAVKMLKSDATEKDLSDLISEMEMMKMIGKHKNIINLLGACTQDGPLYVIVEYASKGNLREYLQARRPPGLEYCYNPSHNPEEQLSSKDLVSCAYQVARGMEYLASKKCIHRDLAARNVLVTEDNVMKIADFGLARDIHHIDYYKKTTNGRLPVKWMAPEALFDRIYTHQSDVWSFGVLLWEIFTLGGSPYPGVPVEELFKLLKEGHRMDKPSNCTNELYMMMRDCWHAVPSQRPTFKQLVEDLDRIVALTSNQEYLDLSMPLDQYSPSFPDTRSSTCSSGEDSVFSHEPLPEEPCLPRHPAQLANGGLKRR
MERTK, sequence (Q12866 whole entry, looked up): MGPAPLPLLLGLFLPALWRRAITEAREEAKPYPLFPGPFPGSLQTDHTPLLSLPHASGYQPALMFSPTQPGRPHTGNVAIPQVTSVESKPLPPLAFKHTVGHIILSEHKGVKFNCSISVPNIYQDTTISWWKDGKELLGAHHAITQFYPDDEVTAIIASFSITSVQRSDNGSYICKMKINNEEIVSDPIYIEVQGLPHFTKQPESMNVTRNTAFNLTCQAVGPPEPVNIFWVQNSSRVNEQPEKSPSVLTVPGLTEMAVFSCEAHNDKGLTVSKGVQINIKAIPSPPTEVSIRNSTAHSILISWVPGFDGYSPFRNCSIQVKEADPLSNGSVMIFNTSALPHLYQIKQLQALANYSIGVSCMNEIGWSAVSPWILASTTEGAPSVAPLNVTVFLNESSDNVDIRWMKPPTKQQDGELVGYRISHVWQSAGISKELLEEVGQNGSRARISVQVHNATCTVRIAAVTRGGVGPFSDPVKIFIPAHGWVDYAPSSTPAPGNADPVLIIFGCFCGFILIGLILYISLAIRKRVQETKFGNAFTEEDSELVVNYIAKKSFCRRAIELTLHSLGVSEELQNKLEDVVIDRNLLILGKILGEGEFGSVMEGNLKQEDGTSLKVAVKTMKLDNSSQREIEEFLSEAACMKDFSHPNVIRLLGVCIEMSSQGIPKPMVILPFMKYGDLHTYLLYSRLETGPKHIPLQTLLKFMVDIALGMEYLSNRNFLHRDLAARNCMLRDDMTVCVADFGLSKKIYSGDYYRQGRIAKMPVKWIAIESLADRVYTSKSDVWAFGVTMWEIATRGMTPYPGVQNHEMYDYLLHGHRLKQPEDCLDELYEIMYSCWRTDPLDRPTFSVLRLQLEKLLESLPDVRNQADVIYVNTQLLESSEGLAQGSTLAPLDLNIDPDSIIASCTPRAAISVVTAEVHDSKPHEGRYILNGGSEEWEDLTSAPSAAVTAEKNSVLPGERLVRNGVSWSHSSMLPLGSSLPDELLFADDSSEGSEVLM
Fyn, sequence (P06241 whole entry, looked up): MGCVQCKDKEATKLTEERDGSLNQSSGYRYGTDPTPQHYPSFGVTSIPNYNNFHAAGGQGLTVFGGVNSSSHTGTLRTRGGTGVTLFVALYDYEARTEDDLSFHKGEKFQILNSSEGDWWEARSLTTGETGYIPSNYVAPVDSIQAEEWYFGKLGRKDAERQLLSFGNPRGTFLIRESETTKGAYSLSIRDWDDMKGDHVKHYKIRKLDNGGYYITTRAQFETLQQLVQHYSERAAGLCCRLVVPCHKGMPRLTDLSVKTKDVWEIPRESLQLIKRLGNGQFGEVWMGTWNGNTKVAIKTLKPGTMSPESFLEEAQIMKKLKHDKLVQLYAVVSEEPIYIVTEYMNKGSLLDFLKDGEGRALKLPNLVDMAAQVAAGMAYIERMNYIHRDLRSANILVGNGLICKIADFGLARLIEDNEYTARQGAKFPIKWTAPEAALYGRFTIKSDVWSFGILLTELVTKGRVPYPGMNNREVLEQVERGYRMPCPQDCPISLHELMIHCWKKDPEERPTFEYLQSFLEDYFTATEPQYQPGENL

| Sequence | phosphorylation enrichment [1] | phosphorylation enrichment [2] | phosphorylation enrichment [3] | phosphorylation enrichment [4] | phosphorylation enrichment [5] | phosphorylation enrichment [6] | phosphorylation enrichment [7] | phosphorylation enrichment [8] | phosphorylation enrichment [9] | phosphorylation enrichment [10] | phosphorylation enrichment [11] | phosphorylation enrichment [12] | phosphorylation enrichment [13] | SH2 binding enrichment [14] | SH2 binding enrichment [15] | SH2 binding enrichment [16] |
| --- | --- | --- | --- | --- | --- | --- | --- | --- | --- | --- | --- | --- | --- | --- | --- | --- |
| ETALHYIHDGI [GATD3A_Y250] | 0.524 | 0.431 | 0.525 | 0.775 | 0.412 | 0.796 | 0.659 | 0.433 | 0.818 | 0.525 | 0.48 | 0.432 | 0.637 | 0.501 | 1.03 | 0.786 |
| ETGEPYRLSPE [EIF4G1_Y311] | 0.733 | 0.503 | 0.68 | 1 | 0.58 | 1.15 | 0.893 | 0.505 | 1.19 | 0.635 | 0.527 | 0.631 | 0.783 | 0.572 | 0.75 | 0.883 |
| EVDELYREAPI [MYL12B_Y143] | 0.784 | 0.598 | 0.654 | 1.29 | 0.86 | 1.39 | 0.962 | 0.654 | 1.27 | 0.62 | 0.52 | 0.705 | 1.11 | 0.475 | 0.719 | 0.867 |
| EWKQNYEESQS [MYH7_Y1460_K1459N] | 0.542 | 0.497 | 0.664 | 1.32 | 0.546 | 1.25 | 0.967 | 0.481 | 1.16 | 0.792 | 0.461 | 0.605 | 0.692 | 0.561 | 0.666 | 0.829 |
| EYGFRYELVQY [UGGT2_Y1289] | 0.986 | 0.631 | 0.879 | 1.62 | 0.872 | 1.65 | 0.932 | 0.558 | 1.83 | 3.36 | 0.584 | 0.674 | 1.17 | 2.15 | 0.787 | 0.768 |
| FADGVYQALEE [DUOX2_Y70_YF] | 1.97 | 1.38 | 1.5 | 0.979 | 0.696 | 1.3 | 0.749 | 3.65 | 1.49 | 1.1 | 3.81 | 3.3 | 0.666 | 0.75 | 0.882 | 1.15 |
| FADIAYNFRHR [PAH_Y166_G171R_YF] | 0.343 | 0.405 | 0.425 | 0.487 | 0.317 | 0.652 | 0.537 | 0.407 | 0.577 | 0.348 | 0.415 | 0.374 | 0.44 | 0.547 | 0.872 | 0.888 |
| FAELMYTGFWH [ASS1_Y322_V321M] | 3.52 | 7.12 | 4.76 | 2.02 | 2.32 | 1.67 | 3.16 | 6.85 | 2.17 | 5.42 | 6.43 | 4.7 | 2.02 | 0.538 | 0.816 | 0.918 |
| FARNCYVAGQF [G6PD_Y107_S106C_YF] | 0.505 | 0.363 | 0.487 | 0.743 | 0.461 | 0.938 | 0.714 | 0.387 | 0.983 | 0.417 | 0.507 | 0.409 | 0.553 | 0.437 | 0.383 | 0.742 |
| FCRITYDIFPF [INTS13_Y67_M66T_YF] | 2.38 | 2.2 | 3.05 | 1.29 | 0.514 | 1.6 | 1.12 | 1.31 | 1.66 | 0.594 | 2.36 | 2.62 | 1.05 | 0.485 | 0.853 | 1.03 |
| FDDIAYIQKTL [PIK3CA_Y1021_R1023Q] | 0.425 | 0.529 | 0.68 | 0.952 | 0.503 | 0.819 | 0.591 | 0.479 | 0.832 | 0.352 | 0.485 | 0.488 | 0.6 | 0.626 | 0.939 | 0.939 |
| FETDFYRKGGK [INSR_Y1190_YF] | 0.621 | 0.468 | 0.639 | 0.6 | 0.435 | 0.758 | 0.539 | 0.381 | 0.629 | 0.319 | 0.482 | 0.418 | 0.472 | 0.502 | 0.776 | 0.875 |
| FFCRWYRNRKS [EREG_Y144_YF] | 0.421 | 0.433 | 0.514 | 0.433 | 0.463 | 0.453 | 0.421 | 0.563 | 0.442 | 0.312 | 0.51 | 0.326 | 0.409 | 0.516 | 0.858 | 0.705 |
| FGAHNYHPLPV [OAT_Y55_YF] | 0.573 | 1.04 | 0.677 | 0.58 | 6.41 | 0.535 | 0.562 | 0.468 | 1.64 | 0.35 | 0.538 | 0.606 | 3.33 | 0.893 | 0.493 | 0.817 |
| FGCTFYNQAIM [MCCC2_Y196_R193C] | 0.825 | 0.365 | 0.777 | 1.32 | 0.529 | 1.54 | 0.968 | 0.472 | 1.4 | 0.647 | 0.47 | 0.597 | 1.04 | 0.534 | 0.608 | 0.685 |
| FGEFRYRSVIK [CFTR_Y517_D513G_YF] | 0.558 | 0.409 | 0.559 | 0.744 | 0.44 | 0.891 | 0.574 | 0.409 | 0.728 | 0.396 | 0.426 | 0.565 | 0.541 | 0.423 | 0.426 | 0.567 |
| FGMQLYQNFMH [GRB14_Y347_YF] | 3.53 | 2.89 | 2.41 | 0.971 | 0.544 | 1.04 | 0.777 | 2.84 | 1.06 | 5.17 | 3.67 | 3.03 | 0.772 | 1.22 | 1.34 | 2.83 |
